B1: 33 (protein)
chain: SSNDKNKINKNNMPLQRGASNLKDINIHNVEKKSNMESVNNNINNAACSKNLNANKVPNVAHTGVNKKGETKNEEVEKEENENEEIEKEEIENEENQQNEEDENEENQQNEEDENEENQQMNVNVDVSAEKKNKELPEEKKELQKNSEKNINKEVIKDSNKDNTFNFHKNINTAFNKNKNIYNNNNNNNNNNKAFIEKKEEAIDMKKTHCSNNNKMCKYNNMNNHMSTNKNNNQIFEESKQNVNKPIYNLKSLGNNAFKNDEKYNENDYKNNHDDDKKKYTDDSNEENIYEERNQKILLIHLLKNIKELLNRQRQNFNNFLSFLSENYQSYEKFYKSQKYQNGKNYIDKLDQQGELKNVAVVTHSFLDMSKAANGKKDKNGVFVKLMNDQNDDGDDTKDGDDTKDEDDHKNEDDHKNEDDHKNEDDHKNEDDHKNGDDNKNGDDHKNGDDNKNGDDDNGKKSHDISDIKNIIDTILQSDDITDEQKKYLEIIKKILDLEEDVLNKEKEQLQLNKNIIEVLMGKSDELRNIAVNLKNGNGDNEASQRVDLAQNIVSNLLNFAVQLKNTGNIVYNNIQGQGELLQSIEKNIDKAENDLKKSTSVNTAFTPKNVPNTEQNDQETQTDDDINDADIDENNNANDKNNCHMYKKNNCHMYKKNNCKKYFLNSHYNNYLCKKQKKYNKNDMGNKQKDNKKFKLNEAMKNHFYNIFVKETVMLKKLYKVLFELF
modifications: bait human Fc-tagged dimer
B2: 75 (protein)
chain: NVVAPKSAEAVHTLTAKLDTENKAHQKYIDIINGVFSENMENFVFSITTSNGFTCSINKLDVIFDNKVTGMQKVFSDENVQYIKEASLEFKNNLLEYMKGVMPSENDFSNVRKEFQKVCVKYFSELRRKFFQIYRDPNNKNQNEDNVDNHMNIEEISQEFFSGFNPFGTMKIRKEQNPDLSQKDSLILNENNNDALTSADQKNNNMVPMENRAFSYSQQSSHVVSFDGHDEHVEQQEQHSGDNTQEDKDQLMDLPFNKDKVFSTFLKNVALLIEGNCAEAQQQAQEQTQEQTEEQEEEQNEKEIESDKQVQKDGEQKENDVQKKQKANAFTIQFSSSLSRKHISTTCNAASGNVFLRKGNKPFEHFNSPNFENMMKGVFGIIQNPFENGQPTFPFFKNINSISGIGNVDIPKNFMNDFLNNGNDQNTPISS
modifications: bait human Fc-tagged dimer
B3: 50 (protein)
chain: ANAFYVDNGQEMLIKEKEHYSSDSEHHKEESASIGNLNVFFPAENYHFSTYMGFDRRSFLPSNEIELEKMIGANFANEVKNYCSRQNVAQKIGDYLNIAFEYSRALEELRSEMILDFNKRKHLTNNADDTILHMIENAEKRKNDPNYKEAYENKDYANNANIFMNEYSNPLSTKYNKILKEYLCHLFVNNPGTKPLERLYYNSLALGELVEPIRNKFKSLASSTIDFNYEIHMASASNIYLLAHFLVLSLAYLSYNEYFTTGTKSFYSLPTILTANSDNSFFMLNEMCNIHYNPNKNFKKDITFIPIESRPKRTTTFYGERRLTCDLLELVLNAIMLININEINNVFSNNNVDGYENSLSFSHNAIRIFSKVCPKINNDNVLKCEFEESSLYNPKIIKNDASEKSSQKNLKKAFDLLRTYAEIEGHSAEGSTSPYYVSLILDDMKYNDFYKYTLWYEPRELIYGDIRGMQMKKKKKTKYIYNDFMKKSTQLKKKLIKNDLKYNLKSKGLVFLYAMIDKYGSILNKAQKAKVQFLNSASSIRYYLYLNKVIFKSAKTYLDIMKRVLEELQTSTNTPLKFLVRGNYIENINNIARNDNMFYANLFVLTALSRRDPVKDYYNDKRKMLSATLAEKFANSASMLIPHKLRKLVVSMKKGLLKKKLLTSLAKVKLLQHIPAHMLENIASSIRFTTHTIATMQIIQNAKYMSKHNFAQYDSKGMLARQIFTKGGFAEYADNLMAKWFSKGFEEYKREQIENFKMENSIDSELKDSEREDENDASEESAKKKLQDLQLEEREKMKKENSLLFNQADKWDQFINKELVRALGLWLEFNDNPANAASFVYKVVEDSKHLLENNIDNNIIFSRTVKPTKQTAFRRFFNKILSLGNMLLRKPSFRVEHALWFGATIDIKKAFILLEKVSELHKMLNNQDESWLINEAFIEIVDHVVDLSTYKHVREPFGVARNPGMMAINPKYAELSHENRLRELQNSMCADHCSSVWKVISSFALHHLKNPDSLHTYESKFSKNSFGNKIDDKDFVHNFKMILGGDAVLHYFDNLLPKTMKKDLKAMKYGVSLTSAYSLKLTKIIFSQMQLPYLSQMFYMQAPYFGHFIGKWQKKRQQSRLKEIMSFMTLGSLSAYTLFSAMDITQQAKDIGAGPVASCFTTRMSPPQQICLNSVVNAALSTSTQSAMKCVFSV
modifications: bait human Fc-tagged dimer
B4: 72 (protein)
chain: SNHIKSVNRCFIPFISEYIYKQKNRKNNIAYDSSNSHYNDKIIPCGNYNKQLKYKINFCRNLYFNNKNEYNRICSRNKLNFHNIQTDNTIYKPKKKYYEVGKVREKIKMYTLFKDDKINTLKCNEEESVTSETINKHDSSVKVKGRRKKNIASNENIMNPNNKAVSSINTNLADSSNNKNDNSLNSKKNDNTLNSKKNDNTLNSKKNDNTLNSKNNNNALNSKNNNNALNSKKSNNAYNDKHIDHIIPEGKNKINNNIDVKHNINNKLNEINEEPYEDTHNKEENSANKNDNDEKRKEENNNIARRYIKNDQMSYNNINTNSNEYDKNAATLDETYIGKTFEGYVYSVNKNAACIKLKNINKYGLLFKNKANLGDDIEDMNDFFEKDQPVHVKILGINTKKNIFYLGNIIKYNENIKLSKGEYSKGLITKVCDSYCFIKVLKNGATGYLHKSKLFCMNDKEKKNNDNQNYDNPNNDNPNYDNQNYDNQNYNNPNYDHPNYDNQNYDNQNYNNPNNDYSTSQLYNSDNLQMDFIYKLQFTKIFNIWDIIDVEILGTPQNDYKSNYILTIPRGSKTFKKILNYLNVLKENEDINNIQYKGDYIYSIDNNKNDNIIDSDINNHHINNKKKKKNLYDIQNNMNHAPFNKFHTEDEYLFNDHVQENVHTFYEKNKKYKITYDKENNHKMNKAYYLKKNKELPFNNKFKKIIKNIYDLPNTISLSMLSKTIKIPLASIKKYFIIHENKEYNSAYKINSEQIKRICQHFKIDCNVEQRDDNVVTKVNGATKDCQEKVFKNVAQDRLKEGEQERVIKVEAKIKNDEMVMQEQKDTKEEKHMDVQFIEEKDINVQHINVQDMDVQDMDVQDINVQDMDVQNINVQDINIQDMDVQNINNAITLNKATSCQTDESRDAPGGDQNEALDEKDSMEKSKEKKKKKGKSRKKNKDTNLALKSDSIQKSKTTLDDKKRNVVVTFIGHINHGKTSLFDYICKTNEQKKEYGLITQNIRAFKATVRNNFAFTLVDTPGHEAFMPMRSRGVKISDLSILVISGDEGIQEQTVECIKLIKEFNIKIIIAITKVDIPNVDVDRIINDLLYHDITTELNGGEIQVVECSIYKEESIDKLLDAIYLESEFLNLQTNPDKKHEQAQGVVLDSYIDKNGIVSINLLQNGVLNINDHFYTGSSYGKVKILKDHLNKNIKSAYPSDPIKIIGYNKNSVPVAGDKFYVVENEALAKEIAEHNKNKMLTMEINNFAYDQTNMNRYKDFIISRENKIGGSSGILGENNLKNDIDGNMARDDNMARDDNMASDDNMARDGNRANNDNIASDDNMANDYDKIKETKMYTNNKAFQKDDFLKIHLNNANENVINMDPSTHIGKNEIKTIYSNYIIKCDKQGSIEVLKNCMLKLQKEDSICKIKNKIIYADIGNVASSDIKYATSFNAAIIAFGVKLSNDIKGSKNSKGSKNHNNYPIIYSNVLYELIENVEKEMEKKLSKKPMGELKGTAQILKVFNIAKLGKVAGCIVKKGTISINSNIRILRNDKVIYMGKIISIKIVKEEKTQVTEADECGIGFDNFLDFEPNDIIEAYEN
modifications: bait human Fc-tagged dimer
B5: 45 (protein)
chain: GEEKLTKFDPVMIKEGELFGEVSYDCEYSGFLEIENDDILYYCFFVGEDDHNGLLLRKFHMDDMVWGIPMEVLITRKKINLYILTVDYILSKLILIYSFDEKIRITVFNNYMEESVMSEKISINYEILYKANMISYITYFYKNKKSLCVCGMNRNENILCTFSFDYGLTMKDDHTIEFFLKKKIPLGHYKMQVTFKETEVYFNLYNDLNEANFYELKCVKKQDEYICDIMNKIRETQEYNYKRYTYPSSEHNKYYNDHHNKQPQGKQGQQGGAPLPNLGEEENNFIYKHIVRNKYFQMIVFQKDQKCYLAWSFNSLNINDEITKEISSVPCSNVASYYRQERLIVTLKKNQLGSRNHFFLIYEKLTEKGVGCEFGVGGSLYVTKTFMNNACDMDINNMNVATTNYDEINFALIIPLSFQLNYATCFIWEENVDNNEERSSLYYLEEYTNEKEDIKVYTFYFYKYILIYKNFKKSTCTFESKNNEKLYISFRGDTYYKEYNCNILLDSCDFFLHTQSKINIAYDDDVWQVSEELYDGFVMYNGAYVSLYDVLSRSNAHGLIYIDGKENNAAINLNNIKNNNNNNNNNNNNNNAANNNNIANNANSNNAFGEHEKVITIIIPYGIPSTRTIKIEFLNKQNNEEKRWAYLRLQKNEYIMKKVIGINSADIFDLSYKYYKYNQEKIKFILNDFSETTYLGFICQTKEEIKKSLCTISLVDHSHKNMAINNLFKTNNHILPFLYDQSPPRKIQPYNQIISEFRFVLFKNFHLFLQENKINYILLKCMCSSSSSYINTQKNIELSYLITNEQVSHDFIHTPGILIRPRTNIAHNDYQKNNKGNHKGNNKANNKANDKDSNNNANNNANKNGNNHNDNNNNNQNKDIDINSNYAIHNNNEKVKRTKKKINDAPYDKQDEELPSYDFNDLLHEKKNGASVFDFNFVLFLFICITFF
modifications: bait human Fc-tagged dimer
B6: 87 (protein)
chain: LKKGNGDFIKKNGVFFQIDRDMNEPPYSVINVFYTESLLDDNLLNQLEKERKMGKYKTQNYFRKSLDNNKYFMEYSRKQKEQLEFLLE
modifications: bait human Fc-tagged dimer
B7: 74 (protein)
chain: YNLNNDLSKNNNFALNTYVRKDDVEDDSKNEIVDNIQKMVDDFSDDIGFVKTSMREVLLDTEASLEEVSDHVVQNIAKYSLTIEEKLNLFDGLLEEFIENNKGLISNLAKRQQKLKGDKIKKVCDLILKKLKKLENVNKLIKYKIILKYGNKDNKKEMIQTLKNEEGLSDDFKNNLANYETEQNNDDIKEIELVNFISTNYDKFVVNLEDLNKELLKDLNMALS
modifications: bait human Fc-tagged dimer
B8: 83 (protein)
chain: NKNLKCNFYYNNNNLATYVIKHNRFLSEYQSNFLGGGYSAALKLVNSKKSGTNVNTKYNSENTNTNNNIPESSSTYTNTRLAANNAATTSTTKVTDNNKANIKLTGNNAATINTNSAENTAATKKVTENVITNQILTGNNNAATNTATTEHNNNINTNTNSAENTAATKKVTENVITNQILTGNNNAATNTATTEHNNNINTNTNSADNSNTNTNLADNTATTKKLTDNINTAQNLATSTNTATVSTDNNNINTKPIDNNNADIKSTDNYNTGTKETDNKNTDIKATDNNNIATTTDNTNTNVISTDNSKTNVISTDNSKTNTISTDNDNADTILTDNDNNADIILTDNNNADTISTDNDNADTKATDNNNNANTKATDNNNAKIISPDNNNAKTTSTDNNNNANTKATDNNNAKTISNDNNNAKTISTDNNNAKTISNDNNNANTISTDNNNNNANQYVFANNYNEATSDDELNKDSCDYSEEKENIKSMINAYLDKLDLETVRKIHSDISTCIEKKNNPRNQITHLNNLKNMYNIIKFIVVIYIAFNWAEVIYKYVGKLILAFALYMLIN
modifications: bait human Fc-tagged dimer
B9: 2 (protein)
chain: DFFLRYRTGFIRSRLETYIGNSDVRYNKAFINNRLLNEHAHCDAWSEWSACSKTCDYGIKIRVKISTDQTKSKACSNIAESTICHEHICPRTFEEAEETYLHNKEKEKKKKFRTT
modifications: bait human Fc-tagged dimer
B10: 30 (protein)
chain: QDNKNKVEETHEEQGEMTQEEKDEIYSEFVDYDLNKDGLIDAEEIVVTLKNMKKADFINFFNKVDLDSSGTISIDEYMLFINSN
modifications: bait human Fc-tagged dimer

What follows are binders tested against FGFR4 ectodomain (Homo sapiens, UniProt P22455) (assay: AVEXIS normalised luminescence).
Binder B1 has a binding score of 1.23.
Work on B2 yielded a binding score of 1.05.
Binder B3 has a binding score of 1.17.
With B4 the binding score was 1.02.
Binder B5 has a binding score of 1.05.
In the case of B6, the binding score is reported as 1.61.
B7 was tested, and the binding score was 1.05.
Binder B8 has a binding score of 1.24.
B9 was tested, and the binding score was 1.02.
B10 gave a binding score of 1.55.
